Test results: the nanobody polyreactivity screen of Harvey et al. (2022)

Test: yeast display, Sf9 membrane polyspecificity reagent, FACS + sequencing; frameworks hold sequencing errors
Outline: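 Nanobodies came from a synthetic yeast display library in Saccharomyces cerevisiae BJ5465, induced with galactose for 36–48 hours and stained for 1 hour at 4 °C with 10% biotinylated, detergent-solubilized Sf9 membrane reagent. Cells were enriched on streptavidin microbeads and then FACS-sorted, with low and high (top ~1%) gates set on anti-HA fluorescence for expression and streptavidin fluorescence for reagent binding. Each polyreactivity label reflects the gate a clone came from. Genes were amplified by colony PCR, sequenced by MiSeq 2 × 250 and filtered by CDR length.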

Row | Sequence | polyreactivity (PSR sort gate)
1 | QVQLVESGGGLVQAGGSLRLSCAASGRTFVPYDMGLYRQAPGKERELVAAISSGDSTNYTDSVKGRFTISRDNAKNTVYLQMNSLKPEDTAVYYCAADLTYTMDHWGQGTQVTVSS | low polyreactivity
2 | QVQLVESGGGLVQAGGSLRLSCAASGRTFVPYVMGWYRQAPGKERELVATINWSGGSTYYADSVKGRFTISRDNAKNTVYLQMNSLKPEDTAVYYCAADYYWTYSYYYERFDYWGLGTQVTVSS | low polyreactivity
3 | QVQLVESGGGLVQAGGSLRLSCAASGRTFVPYVMGWYRQAPGKESELVASITSGGSTYYADSVKGRFTISRDNAKNTVYLQMNSLKPEDTAVYYCATRQSAERWGYYYWGQGTQVTVSS | low polyreactivity
4 | QVQLVESGGGLVQAGGSLRLSCAASGRTFVRNAMGWYRPAPGKERELVAAISSIGDSTYYADSVKGRFTISRDNAKNTVYLQMNSLKPEDTAVYYCAAEWVTSYYNYYHWGQGTQVTVSS | low polyreactivity
5 | QVQLVESGGGLVQAGGSLRLSCAASGRTFVRNAMGWYRQAPGKERELVAAISRGGRTNYADSVKGRFTISRDNAKNTVYLQMNSLKPEDTPVYYCATGAGYYSDYDYWGQVTQVTVSS | high polyreactivity
6 | QVQLVESGGGLVQAGGSLRLSCAASGRTFVRNAMGWYRQAPGKERELVAAISSIGDSTYYADSVKGRFTISRDNAKNTVYLQMNSLKPEDTAVYYWAAEWVTSYYNYYHWGQGTLVTVSS | low polyreactivity
7 | QVQLVESGGGLVQAGGSLRLSCAASGRTFVRNAMGWYRQAPGKERELVATIRSGGSTNYADSVKGRFTISRDNAKNTVYLQMNSLKPEDTAVYYCATQGSRARYDYYYWGQGTQVTVSS | high polyreactivity
8 | QVQLVESGGGLVQAGGSLRLSCAASGRTFVRYAMGWYRQAPGKERELVARITSRGTSTYYADSVKGRFTISRDNAKNTVYLQMNSLKPEDTAVYYCNKVSTFREKSRYDYWGQGTQVTVSS | low polyreactivity
9 | QVQLVESGGGLVQAGGSLRLSCAASGRTFVRYTMGWYRQAPGKERELVAAISISGGRTYYADSVQGRFTISRDNAKNTVYLQMNSLKPEDTAVYYCAKDYLGGQLASTGGYDYWGLGTQVTVSS | low polyreactivity
10 | QVQLVESGGGLVQAGGSLRLSCAASGRTFVSNAMGWYRQAPGKERELVAAISGSGGITYYADSVKGRFTISRDNAKNTVYLQMNSLKPEDTAVYYCNADSSGWFPFDYWGQGTQVTVSS | low polyreactivity
11 | QVQLVESGGGLVQAGGSLRLSCAASGRTFVSYAMGWYRQAPGKERELVADITIGGSTNYADSVKGRFTISRDNAKNTVYLLMNSLKPEDTAVYDCAAYYSYPWDTVTTVDLYDYWGQGTQVTVSS | low polyreactivity
12 | QVQLVESGGGLVQAGGSLRLSCAASGRTFVSYAMGWYRQAPGKERELVATITGSTGGTYYADSVKGRFTISRDNAKNTVYLQMNSLKPEDTAVYYCAADRTTYTYYLPYDYWGQGTQVTVSS | low polyreactivity
13 | QVQLVESGGGLVQAGGSLRLSCAASGRTFVSYVMGWYRQAPGKERELVAAITWRGGSTYYADSVKGRFTISRDNAKNTVYLQMNSLKPEDTAVYYCAAPSHGSTSDRYYKFYYWGQGTQVTVSS | high polyreactivity
14 | QVQLVESGGGLVQAGGSLRLSCAASGRTFVTNAMGWYRQAPGKERELVAAISSNGGSTYYADSVKGRFTISRDNAKNTVFLQMNSLKPEDTAVYYCNAEGQPLYVSWHDHRYIYGFDYWGQGTQVSVSS | low polyreactivity
15 | QVQLVESGGGLVQAGGSLRLSCAASGRTFVTYAMGWYRQAPGKERELVAAISKRGSRTYYADSVKGRFTISRDNAKNTVYLQMNSLKPEDTAVYYCNADPYRTSYDYWGQGTQVTVSS | high polyreactivity
16 | QVQLVESGGGLVQAGGSLRLSCAASGRTFVTYAMGWYRQAPGKERELVATINYSGGSTNYADSVKGRFTISRDNAKNTVYLQMNSLKPEDTAVYYCNTVPRQHRPGDYWGQGTQVTVSS | low polyreactivity
17 | QVQLVESGGGLVQAGGSLRLSCAASGRTFVVNAMGWYRQAPGKEREFVAAISYRGDSTYYADSVKGRFTISRDNAKNTVYLQMNSLKPEDSAVYYCAARVLGPGRRYYYWGQGTQVTLSS | high polyreactivity
18 | QVQLVESGGGLVQAGGSLRLSCAASGRTFVVNAMGWYSPAPGKEREFVAGISVRGGITYYADSVKGRFTISRDNAKNTVYLQMNSLKPEDTAVYYCAAYILDYGGDQRIFDYWGQGTQVTVSS | low polyreactivity
19 | QVQLVESGGGLVQAGGSLRLSCAASGRTFVVYAMGWYRQAPGKERELVAAISYSGGSTYYADSVKGRFTISRDNAKNTVYLQMNSLKPEDTAVYYCAAVHLGYYHIYGLGYWGQGTQVTVSS | high polyreactivity
20 | QVQLVESGGGLVQAGGSLRLSCAASGRTFVVYAMGWYRQAPGKERELVAGSGSTFYADSVKGRFTISPDNAKNTVYLQMNSLKPEDTAVYYCAADHPALYSLDWDTAYDYWGQGTQVTVSS | low polyreactivity
21 | QVQLVESGGGLVQAGGSLRLSCAASGRTFVVYAMGWYRQAPGKERELVAVISFTGDSTFYADSVKGRFTISRDNSKNTVYLQMNSLKPEDTAVYYCAADFRRVFSKYSYYLYFDFDYWGQGTQVTVSS | low polyreactivity
22 | QVQLVESGGGLVQAGGSLRLSCAASGRTFVWNAMGWYRQAPGKERELVAAITSGGSTNYADSVKGRFTISRDNAKNTVYLQMNSLKPEDTAVYYCAADWQYSPRMDYWGQGTQVTVSS | low polyreactivity

Row | Sequence | polyreactivity (PSR sort gate)
23 | QVQLVESGGGLVQAGGSLRLSCAASGRTFVYNAMGWYRQAPGKERELVAAISAIDGSTYYADSVKGRFTISRDNAKNTVYLQMNSLKPEDTAVYYCAADTQLEASHKDRYEYDYWGQGTQVTVSS | low polyreactivity
24 | QVQLVESGGGLVQAGGSLRLSCAASGRTFVYNAMGWYRQAPGKERELVAAISQSGGSTYYADSVKGRFTISRDTAKNSVYLQMNSLKPEVTAVYDCAARYTTGSYVRYNFWGQGTQVTVSS | high polyreactivity
25 | QVQLVESGGGLVQAGGSLRLSCAASGRTFVYNAMGWYRQAPGKERELVATITSSGNTYYADSVKGRFTISRDNAKNTVYLQMNSLKPEDTAVYYCNRRYWTSGYWGQGTQVTVSS | high polyreactivity
26 | QVQLVESGGGLVQAGGSLRLSCAASGRTFVYNAMVWYRQAPGKEREFVAAISWRGGSTFYADSVKGRFTISRDNAKNTVYLQMNSLKPEDTAVYYCAAEGWYYRYDYWGQGTQVTVSS | high polyreactivity
27 | QVQLVESGGGLVQAGGSLRLSCAASGRTFVYYAMGWYRQAPGKERELVAAIRRDTRTYYADSVKGRFTISRDNAKNTVYLQMNSQTPEDTAVYYCAADDPWHYDFDYWGQGTQVTVSS | low polyreactivity
28 | QVQLVESGGGLVQAGGSLRLSCAASGRTFVYYAMGWYRQAPGKERELVAAISSGGSTYYADSVKGRFTISRDNAKNTVYLQMNSLKPEDTAVYYCNALRYTHYLLTYGYWGQGTQVTVSS | high polyreactivity
29 | QVQLVESGGGLVQAGGSLRLSCAASGRTFVYYAMGWYRQAPGKERELVAAITSGGGTNYADSVKGRFTISRDNAKNSVYLQMNSLKPEDTAVYYCNADPRWYHFEYGYWGQGTQVTVSS | high polyreactivity
30 | QVQLVESGGGLVQAGGSLRLSCAASGRTFVYYDMGWYRQAPGKERELVAAISRRGDTTYYADSVKGRFTISRDNAKNTVYLQMNSLKPVDTAVYYCNARSIKYGSWGQGTQVTVSS | high polyreactivity
31 | QVQLVESGGGLVQAGGSLRLSCAASGRTFWAYALGWYRQGPGKERELVAAITTSGGSTNYADSVKGRFTISRDNAKNTVYVQLHSLKPEDTAVYYCNADPTYPVVNGVGYWGQGTQVTVSS | low polyreactivity
32 | QVQLVESGGGLVQAGGSLRLSCAASGRTFWDYAMGWYRQAPGKERELVAAITGGITNYADSVKGRFTISRDNAKNTVYLQMNSLKPEDTAVYYCAVYYRRWFSRYDYWGQGTQVTVSS | low polyreactivity
33 | QVQLVESGGGLVQAGGSLRLSCAASGRTFWDYGMGWYRQAPGKERELVATISGNGGDTYYADSVKGRFTISRDNAKNTVYLQMNSLKPEDTAVYYCAAAWPSTGLLYVLGYSGYGYWGQGTQVTVSS | low polyreactivity
34 | QVQLVESGGGLVQAGGSLRLSCAASGRTFWFNAMGWYRQAPGKERELVASITLSGGSTYYADSVKGRFTISRDNAKITVYLQMNSLKPEDTAVYYCAADQTVHISSYDYWGQGTQVTVSS | low polyreactivity
35 | QVQLVESGGGLVQAGGSLRLSCAASGRTFWFYDMGWYRQAPGKEREFVASITSSGGSTYYADSVKGRFTISRDIAKNTVYLQMNSLKPEDTAVYYCAASFYWTTRYSREYDYWGQGTQVTVSS | high polyreactivity
36 | QVQLVESGGGLVQAGGSLRLSCAASGRTFWGYAMGWYRQAPGKERELVAAISCRGGRTYYADSVKGRFTISRDNAKNTVYLQMNSLKPEDTAVYYCNRAYLLRPDLYDYWGQGTQVTVSS | low polyreactivity
37 | QVQLVESGGGLVQAGGSLRLSCAASGRTFWGYAMGWYRQAPGKERELVAAISWSGTSTYYADSVKGRFTISRDNAKNTVYLQMNRLKPEDSAVYYCARAVNDWSRKYNYWGQGTLVTVSS | high polyreactivity
38 | QVQLVESGGGLVQAGGSLRLSCAASGRTFWKYAMGWSRQAPGKERELVAAITDDDSTDYADSVKGRFTISRDNAKNTVYLQMTSLKPEYTAVYYCNADSSRYYRALEYWGQGTQVTVSS | low polyreactivity
39 | QVQLVESGGGLVQAGGSLRLSCAASGRTFWKYAMGWYRQAPGKERELVAAISSSGGNTYYADSVKGRFTISRDNAKNSVYLQMNSLKPEDTAVYYCAARLPRGAYYYWGQGTQVTVSS | high polyreactivity
40 | QVQLVESGGGLVQAGGSLRLSCAASGRTFWNNAMGWYRQAPGKERELVAAISVRGGSTYYADSVKGRFTISRDNAKNTVYLQMNSLKPEDTAVYYCATRSRGWIAPPWQGSDGYYYWGQGTQVTVSS | low polyreactivity
41 | QVQLVESGGGLVQAGGSLRLSCAASGRTFWNYAMGWSRQAPGKERELVAVIRFSDGSTYYADSVKGRFTISRDNAKNTVYLQMNSLKPEDTAVYYCAAKGPRRWGSGFDYWGQGTQVTVSS | low polyreactivity
42 | QVQLVESGGGLVQAGGSLRLSCAASGRTFWNYAMGWYRQAPGKERELVAVIRFSDGSTYYADSVKGRFTISRDNAKNTGYLQMISLKPEDTAVFYCAAKGPRRWGSGFDYWGQGTQVTVSS | low polyreactivity
43 | QVQLVESGGGLVQAGGSLRLSCAASGRTFWPYAMGWYRQAPGKERELLAAITSDGSTTYADSVKGRFTISRDNAKNTVYLQMNSLTPEDTAVYYCAAYGYYYYQTIPMDYWGQGTQVTVSS | low polyreactivity
